Experimental data: patent US9013690

Target: Beta Amyloid 1-40 (human) (UniProt P05067)
Test: fluorescence sandwich immunoassay on D2PA plate, 6E10 capture and anti-Aβ42 detection, Aβ40 as analyte

anti-Aβ42 (biotinylated detection antibody of the Covance Aβ-42 ELISA kit)
Cross-Reactivity: 0.06%
